Measured values as given in the supplement of paper PMC10126150.
± gives the standard deviation of the averaged measurements.

System: ATP
Assay: switch fluorescence ratio, 500 uM ATP over buffer (Cy3 cluster intensity, sum of 5 cycles each) (fold (ratio)); higher = stronger signal-on switching upon ATP binding; sequences stand for … in TCGTCGGCAGCGTCAGATGTGTATAAGAGACAGTTTTTTTTTTTTTTTTTTTTTTTTT…TC
Conditions: aptamer strand: ATP DNA aptamer (quencher-CACCTGGGGGAGTATTGCGGAGGAAGG + anchor), 100 nM annealed; ATP concentration: 500 uM
Method in brief: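 Five buffer/ATP imaging cycles were run on Cy3-labelled switching-strand clusters on a modified Illumina MiSeq flow-cell, with NaOH stripping and re-annealing between cycles. In each cycle, clusters annealed to 100 nM quencher-labelled ATP aptamer were imaged in selection buffer, then after 15 min with 500 uM ATP at 22 °C. Per cluster, the fluorescence ratio is summed target-cycle over summed buffer-cycle Cy3 intensity, averaged per switch-domain sequence. Only clusters within 100-1000 RFU were kept.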
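Note: ATP exposure 15 min at 22 °C before imaging.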

| Sequence | switch fluorescence ratio |
| --- | --- |
| GGTTAATTAG | 0.9819 ± 0.0077 |
| GGTTACCGTG | 0.997 ± 0.033 |
| GGTTACGCTA | 1.11 ± 0.074 |
| GGTTACGGGG | 1.01 ± 0.013 |
| GGTTACGGTA | 1.04 ± 0.031 |
| GGTTAGATTG | 1.01 ± 0.006 |
| GGTTAGGATG | 0.97 ± 0.025 |
| GGTTAGTATG | 1.01 ± 0.027 |
| GGTTATCGAG | 0.975 ± 0.037 |
| GGTTATGGCC | 1.01 ± 0.031 |
| GGTTATGGGA | 0.996 ± 0.032 |
| GGTTATGGTA | 0.9715 ± 0.0063 |
| GGTTATGTGT | 0.964 ± 0.014 |
| GGTTATTGGG | 0.98 ± 0.075 |
| GGTTATTGGT | 1.02 ± 0.021 |
| GGTTATTTA | 0.992 ± 0.035 |
| GGTTCAAGGT | 0.994 ± 0.027 |
| GGTTCAGGGC | 1.02 ± 0.047 |
| GGTTCATTTT | 1.01 ± 0.025 |
| GGTTCGAGAG | 0.964 ± 0.012 |
| GGTTCGGATC | 0.99316 ± 0.00058 |
| GGTTCGGCGG | 1.01 ± 0.045 |

| Sequence | switch fluorescence ratio |
| --- | --- |
| GGTTCGTCTG | 0.981 ± 0.021 |
| GGTTGAAAGT | 1.48 ± 0.69 |
| GGTTGAAGGT | 1 ± 0.03 |
| GGTTGACGAG | 0.986 ± 0.012 |
| GGTTGACTTA | 1.03 ± 0.011 |
| GGTTGAGATG | 0.982 ± 0.014 |
| GGTTGAGCGG | 0.993 ± 0.011 |
| GGTTGAGCTG | 0.945 ± 0.056 |
| GGTTGAGGTT | 1.04 ± 0.022 |
| GGTTGCAAGA | 1.01 ± 0.015 |
| GGTTGCACGC | 1.01 ± 0.0046 |
| GGTTGCAGCT | 0.975 ± 0.018 |
| GGTTGCCATA | 0.944 ± 0.025 |
| GGTTGCGCTT | 1.29 ± 0.39 |
| GGTTGGCCGT | 1.03 ± 0.051 |
| GGTTGGGATG | 0.951 ± 0.022 |
| GGTTGGGTTG | 0.987 ± 0.019 |
| GGTTGGTGGG | 0.969 ± 0.044 |
| GGTTGTATCG | 1 ± 0.05 |
| GGTTGTGCTT | 0.995 ± 0.0039 |
| GGTTTAAAGA | 1 ± 0.038 |
| GGTTTAAATG | 1.0317 ± 0.00089 |

| Sequence | switch fluorescence ratio |
| --- | --- |
| GGTTTAAGGC | 0.993 ± 0.047 |
| GGTTTAAGTT | 0.99 ± 0.03 |
| GGTTTAATAG | 0.986 ± 0.026 |
| GGTTTAATGT | 0.9927 ± 0.0098 |
| GGTTTAGGGG | 0.985 ± 0.032 |
| GGTTTAGTCA | 0.9719 ± 0.00067 |
| GGTTTATCGT | 0.974 ± 0.022 |
| GGTTTATGTT | 1 ± 0.019 |
| GGTTTATTGG | 1 ± 0.03 |
| GGTTTCATGA | 1.01 ± 0.026 |
| GGTTTCCGCC | 1.169 ± 0.0023 |
| GGTTTCGCCA | 0.9807 ± 0.0096 |
| GGTTTCGCTT | 1.03 ± 0.046 |
| GGTTTCGGGA | 1.01 ± 0.021 |
| GGTTTCTAAG | 1.01 ± 0.042 |
| GGTTTGAGTA | 1.02 ± 0.074 |
| GGTTTGCAGT | 1.003 ± 0.0093 |
| GGTTTGCTAG | 1.04 ± 0.072 |
| GGTTTGGATA | 0.985 ± 0.028 |
| GGTTTGGCGT | 0.981 ± 0.017 |
| GGTTTGGGCG | 1.03 ± 0.034 |
| GGTTTGGGCT | 0.983 ± 0.051 |

| Sequence | switch fluorescence ratio |
| --- | --- |
| GGTTTGGGGA | 0.983 ± 0.011 |
| GGTTTGGGGC | 1.03 ± 0.074 |
| GGTTTGGGTG | 0.995 ± 0.04 |
| GGTTTTAGGT | 0.988 ± 0.035 |
| GGTTTTATGA | 1.002 ± 0.0062 |
| GGTTTTGGGC | 1.02 ± 0.042 |
| GGTTTTGTAA | 0.982 ± 0.018 |
| GGTTTTGTTC | 1.09 ± 0.11 |
| GGTTTTGTTT | 0.9996 ± 0.0075 |
| GGTTTTTAAG | 0.995 ± 0.023 |
| GGTTTTTACA | 0.981 ± 0.024 |
| GGTTTTTATT | 0.992 ± 0.0092 |
| GGTTTTTCGG | 1.04 ± 0.014 |
| GGTTTTTGAG | 0.9564 ± 0.0045 |
| GGTTTTTGTA | 0.995 ± 0.025 |
| GGTTTTTTCT | 1.03 ± 0.088 |
| GTAAAAAGAG | 1 ± 0.011 |
| GTAAAAGTTG | 1 ± 0.026 |
| GTAAAGAAAA | 1.05 ± 0.081 |
